Test system: Escherichia coli TOP10
Experiment: shrunken log2 fold change of peptide-encoding DNA abundance (4.5 h post-induction vs induction); higher = less antimicrobial activity (less host growth inhibition)
Settings: time post-induction: 4.5 h; library: site-saturation at positions 5, 18, 19, 20
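Further: peptides expressed intracellularly from a pBAD plasmid library in pooled LB shake-flask culture, induced with 0.3% L-arabinose, DNA abundance read by NGS, three biological replicates, DESeq2 with apeglm shrinkage.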

Sequence	shrunken log2 fold change
RRIRLRPPRLPRPRPRPRRVPRP	0.0457
RRIRLRPPRLPRPRPRPRTEPRP	0.0352
RRIRLRPPRLPRPRPRPRTGPRP	0.321
RRIRLRPPRLPRPRPRPRTPPRP	0.376
RRIRLRPPRLPRPRPRPRVCPRP	0.0558
RRIRLRPPRLPRPRPRPRVPPRP	0.264
RRIRLRPPRLPRPRPRPRWIPRP	-0.074
RRIRLRPPRLPRPRPRPSARPRP	0.0346
RRIRLRPPRLPRPRPRPSDGPRP	-0.162
RRIRLRPPRLPRPRPRPSETPRP	-0.0373
RRIRLRPPRLPRPRPRPSEWPRP	-0.0637
RRIRLRPPRLPRPRPRPSFSPRP	-0.365
RRIRLRPPRLPRPRPRPSGDPRP	0.0305
RRIRLRPPRLPRPRPRPSGTPRP	-0.114
RRIRLRPPRLPRPRPRPSHAPRP	0.212
RRIRLRPPRLPRPRPRPSKSPRP	-0.0582
RRIRLRPPRLPRPRPRPSLRPRP	0.00716
RRIRLRPPRLPRPRPRPSMNPRP	-0.345
RRIRLRPPRLPRPRPRPSMVPRP	-0.665
RRIRLRPPRLPRPRPRPSNDPRP	2.11
RRIRLRPPRLPRPRPRPSNSPRP	-0.564
RRIRLRPPRLPRPRPRPSPIPRP	-0.0508
RRIRLRPPRLPRPRPRPSPKPRP	0.0205
RRIRLRPPRLPRPRPRPSPVPRP	-0.186
RRIRLRPPRLPRPRPRPSQIPRP	0.0199

Sequence	shrunken log2 fold change
RRIRLRPPRLPRPRPRPSRKPRP	-0.177
RRIRLRPPRLPRPRPRPSRQPRP	-0.189
RRIRLRPPRLPRPRPRPSSLPRP	-0.39
RRIRLRPPRLPRPRPRPSSMPRP	-0.179
RRIRLRPPRLPRPRPRPSVDPRP	-0.462
RRIRLRPPRLPRPRPRPSWDPRP	-0.0231
RRIRLRPPRLPRPRPRPTAAPRP	0.897
RRIRLRPPRLPRPRPRPTAFPRP	0.0454
RRIRLRPPRLPRPRPRPTCFPRP	-0.156
RRIRLRPPRLPRPRPRPTCQPRP	0.0421
RRIRLRPPRLPRPRPRPTDRPRP	-0.00223
RRIRLRPPRLPRPRPRPTEDPRP	-0.0182
RRIRLRPPRLPRPRPRPTFCPRP	0.0876
RRIRLRPPRLPRPRPRPTFDPRP	-0.173
RRIRLRPPRLPRPRPRPTFNPRP	-0.289
RRIRLRPPRLPRPRPRPTGNPRP	-0.044
RRIRLRPPRLPRPRPRPTGQPRP	0.107
RRIRLRPPRLPRPRPRPTGYPRP	-0.206
RRIRLRPPRLPRPRPRPTHHPRP	0.239
RRIRLRPPRLPRPRPRPTIAPRP	-0.183
RRIRLRPPRLPRPRPRPTLVPRP	-0.0392
RRIRLRPPRLPRPRPRPTNRPRP	0.267
RRIRLRPPRLPRPRPRPTPSPRP	0.552
RRIRLRPPRLPRPRPRPTQCPRP	0.0455
RRIRLRPPRLPRPRPRPTQDPRP	0.488

Sequence	shrunken log2 fold change
RRIRLRPPRLPRPRPRPTQQPRP	0.0862
RRIRLRPPRLPRPRPRPTRAPRP	0.498
RRIRLRPPRLPRPRPRPTSIPRP	-0.178
RRIRLRPPRLPRPRPRPTWWPRP	0.454
RRIRLRPPRLPRPRPRPTYNPRP	-0.869
RRIRLRPPRLPRPRPRPTYWPRP	-0.256
RRIRLRPPRLPRPRPRPVAHPRP	-0.454
RRIRLRPPRLPRPRPRPVAPPRP	0.474
RRIRLRPPRLPRPRPRPVARPRP	0.551
RRIRLRPPRLPRPRPRPVCGPRP	0.227
RRIRLRPPRLPRPRPRPVCWPRP	0.462
RRIRLRPPRLPRPRPRPVDQPRP	0.194
RRIRLRPPRLPRPRPRPVEKPRP	0.0244
RRIRLRPPRLPRPRPRPVELPRP	0.0718
RRIRLRPPRLPRPRPRPVEQPRP	-0.0062
RRIRLRPPRLPRPRPRPVFWPRP	0.247
RRIRLRPPRLPRPRPRPVGMPRP	-0.0033
RRIRLRPPRLPRPRPRPVHPPRP	0.039
RRIRLRPPRLPRPRPRPVIMPRP	-0.0794
RRIRLRPPRLPRPRPRPVLDPRP	-0.366
RRIRLRPPRLPRPRPRPVNAPRP	0.0227
RRIRLRPPRLPRPRPRPVNCPRP	-0.0144
RRIRLRPPRLPRPRPRPVNGPRP	-0.0366
RRIRLRPPRLPRPRPRPVQPPRP	0.653
RRIRLRPPRLPRPRPRPVRGPRP	0.682

Sequence	shrunken log2 fold change
RRIRLRPPRLPRPRPRPVRKPRP	-0.0647
RRIRLRPPRLPRPRPRPVRNPRP	0.0234
RRIRLRPPRLPRPRPRPVRQPRP	0.569
RRIRLRPPRLPRPRPRPVTMPRP	-0.195
RRIRLRPPRLPRPRPRPVVPPRP	0.139
RRIRLRPPRLPRPRPRPVWKPRP	-0.0133
RRIRLRPPRLPRPRPRPVWSPRP	0.0624
RRIRLRPPRLPRPRPRPVYKPRP	-0.134
RRIRLRPPRLPRPRPRPVYPPRP	-0.132
RRIRLRPPRLPRPRPRPVYSPRP	-0.881
RRIRLRPPRLPRPRPRPWADPRP	-0.118
RRIRLRPPRLPRPRPRPWCMPRP	-0.408
RRIRLRPPRLPRPRPRPWDEPRP	0.066
RRIRLRPPRLPRPRPRPWDIPRP	-0.0445
RRIRLRPPRLPRPRPRPWIRPRP	-0.0231
RRIRLRPPRLPRPRPRPWKVPRP	0.0854
RRIRLRPPRLPRPRPRPWLIPRP	-0.00228
RRIRLRPPRLPRPRPRPWMRPRP	0.892
RRIRLRPPRLPRPRPRPWMTPRP	-0.0262
RRIRLRPPRLPRPRPRPWPLPRP	-0.039
RRIRLRPPRLPRPRPRPWPMPRP	-0.0188
RRIRLRPPRLPRPRPRPWRYPRP	-0.268
RRIRLRPPRLPRPRPRPWSFPRP	0.018
RRIRLRPPRLPRPRPRPWSPPRP	-0.303
RRIRLRPPRLPRPRPRPWVAPRP	0.29

Sequence	shrunken log2 fold change
RRIRLRPPRLPRPRPRPWVCPRP	-0.0462
RRIRLRPPRLPRPRPRPWVIPRP	-0.0649
RRIRLRPPRLPRPRPRPWWIPRP	-0.107
RRIRLRPPRLPRPRPRPWWVPRP	0.0559
RRIRLRPPRLPRPRPRPWYQPRP	-0.149
RRIRLRPPRLPRPRPRPYAVPRP	0.00157
RRIRLRPPRLPRPRPRPYAYPRP	-0.0124
RRIRLRPPRLPRPRPRPYCPPRP	-0.24
RRIRLRPPRLPRPRPRPYDNPRP	-1.57
RRIRLRPPRLPRPRPRPYDTPRP	-0.925
RRIRLRPPRLPRPRPRPYEAPRP	-1.12
RRIRLRPPRLPRPRPRPYEVPRP	-0.0159
RRIRLRPPRLPRPRPRPYFHPRP	-1.08
RRIRLRPPRLPRPRPRPYGWPRP	-0.265
RRIRLRPPRLPRPRPRPYHVPRP	-1.29
RRIRLRPPRLPRPRPRPYIFPRP	-0.549
RRIRLRPPRLPRPRPRPYIIPRP	-0.217
RRIRLRPPRLPRPRPRPYIWPRP	-0.017
RRIRLRPPRLPRPRPRPYKIPRP	-0.0766
RRIRLRPPRLPRPRPRPYKLPRP	-0.0961
RRIRLRPPRLPRPRPRPYKNPRP	-0.631
RRIRLRPPRLPRPRPRPYLCPRP	-0.0953
RRIRLRPPRLPRPRPRPYLMPRP	-0.69
RRIRLRPPRLPRPRPRPYLPPRP	-0.18
RRIRLRPPRLPRPRPRPYLQPRP	-0.0746

Sequence	shrunken log2 fold change
RRIRLRPPRLPRPRPRPYQQPRP	-0.18
RRIRLRPPRLPRPRPRPYRAPRP	-0.21
RRIRLRPPRLPRPRPRPYTIPRP	-0.048
RRIRLRPPRLPRPRPRPYVQPRP	-0.144
RRIRLRPPRLPRPRPRPYWTPRP	-0.435
RRIRLRPPRLPRPRPRPYYVPRP	-0.0539
RRIRMRPPRLPRPRPRPAASPRP	1.25
RRIRMRPPRLPRPRPRPAAYPRP	0.206
RRIRMRPPRLPRPRPRPACVPRP	0.428
RRIRMRPPRLPRPRPRPACWPRP	1.06
RRIRMRPPRLPRPRPRPACYPRP	0.223
RRIRMRPPRLPRPRPRPAEIPRP	0.11
RRIRMRPPRLPRPRPRPAGMPRP	0.655
RRIRMRPPRLPRPRPRPAIKPRP	-0.183
RRIRMRPPRLPRPRPRPAKWPRP	0.708
RRIRMRPPRLPRPRPRPAMFPRP	0.388
RRIRMRPPRLPRPRPRPANCPRP	-0.242
RRIRMRPPRLPRPRPRPANKPRP	0.178
RRIRMRPPRLPRPRPRPAPYPRP	0.576
RRIRMRPPRLPRPRPRPAQCPRP	0.0203
RRIRMRPPRLPRPRPRPAQKPRP	1.2
RRIRMRPPRLPRPRPRPARCPRP	1.16
RRIRMRPPRLPRPRPRPARKPRP	1.29
RRIRMRPPRLPRPRPRPARMPRP	0.888
RRIRMRPPRLPRPRPRPASAPRP	1.09

From the supplement of paper PMC9112550, “Optimization of the antimicrobial peptide Bac7 by deep mutational scanning” (BMC Biology, 2022)
